Where a chain is given by its changes, count along the chain named. Numbers in names are those of the source. Values belong to the binder of their own block, whether it stands above or below them.
Assays:
[1] = molecular target: T1, Bacillus stearothermophilus DnaB helicase (Bacillus stearothermophilus, UniProt Q9X4C9 1-454); test: SPR
T1 sequence: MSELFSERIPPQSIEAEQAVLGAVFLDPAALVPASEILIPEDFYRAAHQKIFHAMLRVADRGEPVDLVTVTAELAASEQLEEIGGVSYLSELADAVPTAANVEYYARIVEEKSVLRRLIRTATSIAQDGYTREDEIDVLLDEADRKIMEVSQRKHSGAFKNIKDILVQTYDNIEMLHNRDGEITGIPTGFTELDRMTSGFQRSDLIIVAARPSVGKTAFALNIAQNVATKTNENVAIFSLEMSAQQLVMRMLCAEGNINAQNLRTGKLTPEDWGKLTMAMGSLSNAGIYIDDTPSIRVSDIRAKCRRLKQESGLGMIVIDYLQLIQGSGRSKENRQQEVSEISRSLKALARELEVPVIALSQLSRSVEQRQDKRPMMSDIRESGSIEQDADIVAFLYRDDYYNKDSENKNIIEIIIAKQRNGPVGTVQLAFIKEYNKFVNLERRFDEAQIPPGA

[2] = molecular target: T1, Bacillus stearothermophilus DnaB …; test: SEC

stoichiometry N [1]: 1 DnaI per stearoDnaB subunit
B1: Bacillus subtilis DnaI (wild type) (natural protein)
chain: MEPIGRSLQGVTGRPDFQKRLEQMKEKVMKDQDVQAFLKENEEVIDQKMIEKSLNKLYEYIEQSKNCSYCSEDENCNNLLEGYHPKLVVNGRSIDIEYYECPVKRKLDQQKKQQSLMKSMYIQQDLLGATFQQVDISDPSRLAMFQHVTDFLKSYNETGKGKGLYLYGKFGVGKTFMLAAIANELAEKEYSSMIVYVPEFVRELKNSLQDQTLEEKLNMVKTTPVLMLDDIGAESMTSWVRDEVIGTVLQHRMSQQLPTFFSSNFSPDELKHHFTYSQRGEKEEVKAARLMERILYLAAPIRLDGENRRHP

binding result [2]: binds
B2: B. subtilis DnaI C101A mutant (natural protein)
chain: B1 chain with C101A
